For the assay, the target named is original 2019-nCoV RBD protein (SARS-CoV-2, UniProt P0DTC2). The assay is described as follows: Luminex bead-based competitive binding assay. As to conditions: both partners purified.

B1: P5C3 LS monoclonal antibody (antibody, V domains shown)
VH: QMQLVQSGPEVKKPGTSVKVSCKASGFTFTSSAVQWVRQARGQRLEWIGWIVVGSGNTDYAQQFQERVTITRDMSTSTAYMELSSLGSEDTAVYYCAAPNCSGGSCYDGFDLWGQGTMVTVSS
VL: EIVLTQSPGTLSLSPGERATLSCRGSQSVRSSYLGWYQQKPGQAPRLLIYGASSRATGIPDRFSGSGSGTDFTLTISRLEPEDFAVYYCQQYGSSPWTFGQGTKVEIK
Regarding B1, the binding result is reported as “binds”.

B2: P2G3 LS human IgG1 monoclonal antibody (antibody, V domains shown)
VH: EVQLVESGGGLVQPGRSLRLSCAASGFRFDDYALHWVRQAPEKGLEWVSGISWNSNNIGYAESVKGRFTISRDTAKKSLYLQMNDLRAEDTALYYCVKDRHYDSSGYFVNGFDIWGQGTLVTVSA
VL: DIQLTQSPSFLSASVGDRVTVTCRASQGISSYVAWYQQKAGKAPTLLIYTASTLQSGVPSRFSGSGSGTEFTLTISSLQPEDFATYYCQQLHSYPVTFGQGTRLDIE
As to B2, the binding result is reported as “binds”.

The record behind these values is paper PMC9418005 (Nature Microbiology, 2022).
